Test [1] deals with T1, B7H3 expressed on cells (OV-90, OVCAR3) (human, UniProt Q5ZPR3 29-534).
T1 construct: whole, on cells; also called B7H3+ OV90 tumor cells; B7H3+ OVCAR3 cells
T1 sequence (looked up): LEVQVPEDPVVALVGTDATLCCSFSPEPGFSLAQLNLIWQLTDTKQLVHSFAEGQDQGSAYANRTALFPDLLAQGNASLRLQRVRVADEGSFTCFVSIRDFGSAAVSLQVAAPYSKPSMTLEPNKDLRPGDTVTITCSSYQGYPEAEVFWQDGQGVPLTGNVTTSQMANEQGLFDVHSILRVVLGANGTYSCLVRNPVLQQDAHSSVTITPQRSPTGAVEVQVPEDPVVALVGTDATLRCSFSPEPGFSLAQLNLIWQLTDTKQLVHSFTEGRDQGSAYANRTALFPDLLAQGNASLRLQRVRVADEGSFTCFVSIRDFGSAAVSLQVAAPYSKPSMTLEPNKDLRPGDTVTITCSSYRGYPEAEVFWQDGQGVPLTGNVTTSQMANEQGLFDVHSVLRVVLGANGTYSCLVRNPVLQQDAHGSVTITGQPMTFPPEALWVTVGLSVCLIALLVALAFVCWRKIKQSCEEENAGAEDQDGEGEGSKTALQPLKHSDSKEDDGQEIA
Briefly: flow cytometry on OV-90 cells.

Test [2] has as its target T2, CD19 expressed on cells (Daudi, Raji, K562-CD19) (human, UniProt P15391 20-556).
T2 construct: whole, on cells
T2 sequence (looked up): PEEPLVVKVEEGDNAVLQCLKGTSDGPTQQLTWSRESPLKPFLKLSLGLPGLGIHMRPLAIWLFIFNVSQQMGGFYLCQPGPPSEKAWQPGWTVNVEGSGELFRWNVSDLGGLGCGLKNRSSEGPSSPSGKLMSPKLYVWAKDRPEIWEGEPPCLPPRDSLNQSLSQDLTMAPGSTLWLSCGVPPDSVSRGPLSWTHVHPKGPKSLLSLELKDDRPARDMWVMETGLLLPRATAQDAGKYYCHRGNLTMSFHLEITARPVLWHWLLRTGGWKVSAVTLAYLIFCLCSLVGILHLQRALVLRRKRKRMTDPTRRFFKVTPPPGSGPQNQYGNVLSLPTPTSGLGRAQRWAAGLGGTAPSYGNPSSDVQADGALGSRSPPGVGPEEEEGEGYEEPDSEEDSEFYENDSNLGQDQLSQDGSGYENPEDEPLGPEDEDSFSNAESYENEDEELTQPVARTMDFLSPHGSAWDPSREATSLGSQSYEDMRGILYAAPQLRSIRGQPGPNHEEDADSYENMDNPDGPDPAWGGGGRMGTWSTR
Briefly: flow cytometry on RAJI cells (B7H3-negative, CD19-expressing), AF647 anti-Fc detection.

In test [3] the target is T3, recombinant FAP-His protein (UniProt Q12884 26-760).
T3 construct: not shown: His tag
T3 sequence (Q12884 26-760 limits assumed): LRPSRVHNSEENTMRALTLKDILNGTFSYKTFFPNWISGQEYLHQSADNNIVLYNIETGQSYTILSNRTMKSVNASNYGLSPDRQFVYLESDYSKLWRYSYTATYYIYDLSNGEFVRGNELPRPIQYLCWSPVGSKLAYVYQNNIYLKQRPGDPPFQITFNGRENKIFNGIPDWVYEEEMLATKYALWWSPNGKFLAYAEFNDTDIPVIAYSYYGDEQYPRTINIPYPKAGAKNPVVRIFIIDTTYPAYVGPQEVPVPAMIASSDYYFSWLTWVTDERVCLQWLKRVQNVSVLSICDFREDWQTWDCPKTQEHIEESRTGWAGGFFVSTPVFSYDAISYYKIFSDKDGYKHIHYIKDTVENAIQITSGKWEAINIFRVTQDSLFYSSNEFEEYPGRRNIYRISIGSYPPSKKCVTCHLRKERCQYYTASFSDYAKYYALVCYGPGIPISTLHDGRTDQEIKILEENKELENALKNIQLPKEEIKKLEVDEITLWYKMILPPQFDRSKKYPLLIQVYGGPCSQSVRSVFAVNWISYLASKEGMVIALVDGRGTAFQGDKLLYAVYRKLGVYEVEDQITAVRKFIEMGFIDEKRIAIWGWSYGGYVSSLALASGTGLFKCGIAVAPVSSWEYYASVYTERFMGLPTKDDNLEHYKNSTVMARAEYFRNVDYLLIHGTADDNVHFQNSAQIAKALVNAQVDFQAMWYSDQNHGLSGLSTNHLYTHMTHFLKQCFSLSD
Briefly: MSD plate assay, plate-bound FAP-His, detection with anti-BTN3A1 antibody.

Test [4] has as its target T4, recombinant B7H3-His protein (UniProt Q5ZPR3 29-461, limits assumed).
T4 construct: not shown: His tag
T4 sequence (looked up): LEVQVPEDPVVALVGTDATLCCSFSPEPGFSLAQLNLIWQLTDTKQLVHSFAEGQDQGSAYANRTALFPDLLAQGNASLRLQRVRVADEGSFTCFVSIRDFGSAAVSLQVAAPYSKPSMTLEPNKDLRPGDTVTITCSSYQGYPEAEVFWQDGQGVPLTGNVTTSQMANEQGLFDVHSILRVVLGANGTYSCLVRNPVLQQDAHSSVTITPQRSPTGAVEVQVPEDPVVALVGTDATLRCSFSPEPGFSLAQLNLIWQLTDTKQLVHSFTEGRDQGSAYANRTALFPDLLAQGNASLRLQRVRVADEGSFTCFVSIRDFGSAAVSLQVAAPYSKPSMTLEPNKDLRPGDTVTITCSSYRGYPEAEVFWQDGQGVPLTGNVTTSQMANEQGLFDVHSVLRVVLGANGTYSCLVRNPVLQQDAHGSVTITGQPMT
The test is described as follows: MSD plate assay, plate-bound B7H3-His, detection with anti-BTN3A1 antibody.

The target of test [5] is T2, CD19 expressed on cells (Daudi, Raji, …). Briefly: flow cytometry on Daudi cells. (Flow cytometry measures light scatter and fluorescence of single cells or particles in a stream.)

B1: BTN2A1/3A1-Fc-B7H3scFv heterodimeric protein (Fc fusion)
chain 1: QFIVVGPTDPILATVGENTTLRCHLSPEKNAEDMEVRWFRSQFSPAVFVYKGGRERTEEQMEEYRGRTTFVSKDISRGSVALVIHNITAQENGTYRCYFQEGRSYDEAILHLVVAGLGSKPLISMRGHEDGGIRLECISRGWYPKPLTVWRDPYGGVAPALKEVSMPDADGLFMVTTAVIIRDKSVRNMSCSINNTLLGQKKESVIFIPESFMPSVSPCAGSGSRKGGKRGSKYGPPCPPCPAPEFLGGPSVFLFPPKPKDQLMISRTPEVTCVVVDVSQEDPEVQFNWYVDGVEVHNAKTKPREEQFNSTYRVVSVLTVLHQDWLSGKEYKCKVSSKGLPSSIEKTISNATGQPREPQVYTLPPSQEEMTKNQVSLTCLVKGFYPSDIAVEWESNGQPENNYKTTPPVLDSDGSFFLYSRLTVDKSRWQEGNVFSCSVLHEALHNHYTQKSLSLSLGKDEGGEDGSDIQMTQSPSFLSASVGDRVTITCKASQNVDTNVAWYQQKPGKAPKALIYSASYRYSGVPSRFSGSGSGTDFTLTISSLQPEDFAEYFCQQYNNYPFTFGQGTKLEIKSSGGGGSGGGGSGGGGSEVQLVESGGGLVQPGGSLRLSCAASGFTFSSFGMHWVRQAPGKGLEWVAYISSGSGTIYYADTVKGRFTISRDNAKNSLYLQMNSLRAEDTAVYYCARHGYRYEGFDYWGQGTTVTVSS
chain 2: not shown
notes: Produced by transient co-transfection of ExpiCHO cells; also called BTN2A1/3A1-Fc-B7H3scFv/B7H3scFv
With B1, the figures for the binding result in test [1] and in test [2] were “binds” and “no binding”, respectively.

B2: BTN2A1/3A1-Fc-CD19scFv heterodimeric protein (Fc fusion)
chain 1: QFIVVGPTDPILATVGENTTLRCHLSPEKNAEDMEVRWFRSQFSPAVFVYKGGRERTEEQMEEYRGRTTFVSKDISRGSVALVIHNITAQENGTYRCYFQEGRSYDEAILHLVVAGLGSKPLISMRGHEDGGIRLECISRGWYPKPLTVWRDPYGGVAPALKEVSMPDADGLFMVTTAVIIRDKSVRNMSCSINNTLLGQKKESVIFIPESFMPSVSPCAGSGSRKGGKRGSKYGPPCPPCPAPEFLGGPSVFLFPPKPKDQLMISRTPEVTCVVVDVSQEDPEVQFNWYVDGVEVHNAKTKPREEQFNSTYRVVSVLTVLHQDWLSGKEYKCKVSSKGLPSSIEKTISNATGQPREPQVYTLPPSQEEMTKNQVSLTCLVKGFYPSDIAVEWESNGQPENNYKTTPPVLDSDGSFFLYSRLTVDKSRWQEGNVFSCSVLHEALHNHYTQKSLSLSLGKDEGGEDGSDIQMTQTTSSLSASLGDRVTISCRASQDISKYLNWYQQKPDGTVKLLIYHTSRLHSGVPSRFSGSGSGTDYSLTISNLEQEDIATYFCQQGNTLPYTFGGGTKLEITGGGSGGGSGGGSEVKLQESGPGLVAPSQSLSVTCTVSGVSLPDYGVSWIRQPPRKGLEWLGVIWGSETTYYNSALKSRLTIIKDNSKSQVFLKMNSLQTDDTAIYYCAKHYYYGGSYAMDYWGQGTSVTVSS
chain 2: not shown
notes: Secreted from Expi293 or CHO cells and purified; also called BTN2A1/3A1-Fc-CD19scFv3; BTN2A1/3A1-Fc-19scFv
Consider B2, for which the binding result is listed as “no binding” in test [3], “no binding” in test [4] and “binds” in test [5].
